One block for each binder: values may come before it.
Experiments:
[1] = target: T1, intact Her2 expressed at the cell surface (human, UniProt P04626 23-1255); experiment: flow cytometry on SKOV3 cells, pH 6.0 vs pH 7.3
T1 construct: whole, on cells; also called Her2 on SKOV3 cells; Her2 on JIMT-1 cells
Description: (§1) The cells were washed twice in 200 μL binding buffer, followed by addition of 120 μL 1.0% propidium iodide and samples were then transferred to Multiscreen 96-well plates (60 μm Nylon Mesh, Millipore, Etobicoke, ON) and filtered by centrifugation. The filtrate samples were collected from the Multiscreen receiver plate and transferred to a new V-bottom polypropylene plate at 4° C. Flow cytometric analysis was performed on a BD LSR-Fortessa instrument (BD Biosciences, San Jose, Calif.). […] Median fluorescence intensity (MFI) was reported by analyzing 3000 alive cells per sample with the gating strategy: all cells/singlets/alive cells (PI negative) using BD FACSDiva software (BD Biosciences).
(§2) The designed variants were then reformatted into human IgG1/k FSAs and re-tested on the high-density Her2 cells.

[2] = target: T1, intact Her2 expressed at the cell …; experiment: flow cytometry on SKOV3 cells, pH 6.8 vs pH 7.3
Description: as §1, §2

[3] = target: T1, intact Her2 expressed at the cell …; experiment: flow cytometry on SKOV3 cells, apparent KD, pH 5.6; FSA, SKOV3 cells, pH 5.6
Description: as §1, §2

[4] = target: T1, intact Her2 expressed at the cell …; experiment: flow cytometry (FACS) on SKOV3 cells, full-size antibody, pH 6.0
Description: (§3) Cells in T-75 flasks were washed twice with D-PBS and then dissociated using Cell Dissociation buffer (Sigma, C5914) at 37° C. […] The cells were then washed twice by centrifugation at 233×g, removal of supernatant by aspiration and resuspending the cells in 200 μL binding buffer at 4° C. Detection reagent, either anti-human Fab or Fc AlexaFluor488-(Fab′)² (Jackson Immunochemicals, West Groove, Pa.), was then added at a final concentration of 10 μg/mL and samples were incubated at 4° C., 1 h. The cells were washed twice in 200 μL binding buffer, followed by addition of 120 μL 1.0% propidium iodide and samples were then transferred to Multiscreen 96-well plates (60 μm Nylon Mesh, Millipore, Etobicoke, ON) and filtered by centrifugation. The filtrate samples were collected from the Multiscreen receiver plate and transferred to a new V-bottom polypropylene plate at 4° C. Flow cytometric analysis was performed on a BD LSR-Fortessa instrument (BD Biosciences, San Jose, Calif.). […] Median fluorescence intensity (MFI) was reported by analyzing 3000 alive cells per sample with the gating strategy: all cells/singlets/alive cells (PI negative) using BD FACSDiva software (BD Biosciences).
as §2

[5] = target: T1, intact Her2 expressed at the cell …; experiment: flow cytometry on SKOV3 cells, apparent KD, pH 6.4; FSA, SKOV3 cells, pH 6.4
Description: as §1, §2

[6] = target: T1, intact Her2 expressed at the cell …; experiment: flow cytometry (FACS) on SKOV3 cells, full-size antibody, pH 5.2
Description: as §3, §2

[7] = target: T1, intact Her2 expressed at the cell …; experiment: flow cytometry on SKOV3 cells, apparent KD, pH 6.8; FSA, SKOV3 cells, pH 6.8
Description: as §1, §2

[8] = target: T1, intact Her2 expressed at the cell …; experiment: flow cytometry on SKOV3 cells, apparent KD, pH 6.0; FSA, SKOV3 cells, pH 6.0
Description: as §1, §2

[9] = target: T1, intact Her2 expressed at the cell …; experiment: flow cytometry (FACS) on SKOV3 cells, full-size antibody, pH 6.4
Description: as §3, §2

[10] = target: T1, intact Her2 expressed at the cell …; experiment: flow cytometry on SKOV3 cells, apparent KD, pH 7.3 (Bmax not reached)
Description: as §1, §2

[11] = target: T1, intact Her2 expressed at the cell …; experiment: flow cytometry on SKOV3 cells, apparent KD, pH 5.2; FSA, SKOV3 cells, pH 5.2
Description: as §1, §2

[12] = target: T1, intact Her2 expressed at the cell …; experiment: flow cytometry on SKOV3 cells, apparent KD, pH 5.6
[13] = target: T1, intact Her2 expressed at the cell …; experiment: flow cytometry (FACS) on SKOV3 cells, full-size antibody, pH 7.3
[14] = target: T1, intact Her2 expressed at the cell …; experiment: flow cytometry on SKOV3 cells, apparent KD, pH 6.4
[15] = target: T1, intact Her2 expressed at the cell …; experiment: flow cytometry on JIMT-1 cells (low Her2 density), full-size antibody, pH 7.3
[16] = target: T1, intact Her2 expressed at the cell …; experiment: flow cytometry on SKOV3 cells, apparent KD, pH 5.2
[17] = target: T1, intact Her2 expressed at the cell …; experiment: flow cytometry on JIMT-1 cells (low Her2 density), full-size antibody, pH 6.0
[18] = target: T1, intact Her2 expressed at the cell …; experiment: flow cytometry on SKOV3 cells, apparent KD, pH 6.0
[19] = target: T1, intact Her2 expressed at the cell …; experiment: flow cytometry on SKOV3 cells, apparent KD, pH 6.8
[20] = target: T1, intact Her2 expressed at the cell …; experiment: flow cytometry on SKOV3 cells, apparent KD, pH 7.3
[21] = target: T1, intact Her2 expressed at the cell …; experiment: flow cytometry on SKOV3 cells, apparent KD, pH 7.3; remark: listed apart in the source
[22] = target: T2, Recombinant human Her2 extracellular domain (human, UniProt P04626 23-652); experiment: SPR, Fab over immobilized Her2 ectodomain, pH 5.0, 25 C
T2 construct: extracellular domain; also called Her2 ectodomain; recombinant Her2 ectodomain
Description: (§4) Fab-Her2 interactions were analyzed using a Biacore™ T200 (GE Healthcare, Missisauga, ON) surface plasmon resonance instrument. […] Recombinant human Her2 extracellular domain (ThermoFisher Scientific, Burlington, ON) was immobilized onto a CM-5 sensorchip along with a mock-activated blank control surface for referencing. Her2 was diluted to 10 μg/mL in 10 mM NaOAc immobilization buffer pH 4.5 (Biacore) and immobilized to approximately 200 RUs using the Biacore control software Immobilization Wizard with standard NHS/EDC amine coupling. […] Fab samples were injected at 100 4/min with a contact time of 90 s and a 1200-s dissociation using either pH 5.0 or 7.4 running buffer. Sensorgrams were double referenced to the mock-activated blank sensor surface and analyzed for kinetic determination using a 1:1 binding model in BiaEvaluation software v3.1 (GE Healthcare).

[23] = target: T1, intact Her2 expressed at the cell …; experiment: flow cytometry on SKOV3 cells, apparent KD, pH 5.2 (Bmax not reached)
[24] = target: T2, Recombinant human Her2 extracellular …; experiment: SPR, Fab over immobilized Her2 ectodomain, pH 7.4, 25 C
Description: as §4

[25] = target: T1, intact Her2 expressed at the cell …; experiment: flow cytometry on SKOV3 cells, apparent KD, pH 5.2 (Bmax not reached); Fab, SKOV3 cells, pH 5.2 (acidic); approximate, Bmax not reached
Description: (§5) The cells were then washed twice by centrifugation at 233×g, removal of supernatant by aspiration and resuspending the cells in 200 μL binding buffer at 4° C. Detection reagent, either anti-human Fab or Fc AlexaFluor488-(Fab′)² (Jackson Immunochemicals, West Groove, Pa.), was then added at a final concentration of 10 μg/mL and samples were incubated at 4° C., 1 h. The cells were washed twice in 200 μL binding buffer, followed by addition of 120 μL 1.0% propidium iodide and samples were then transferred to Multiscreen 96-well plates (60 μm Nylon Mesh, Millipore, Etobicoke, ON) and filtered by centrifugation. The filtrate samples were collected from the Multiscreen receiver plate and transferred to a new V-bottom polypropylene plate at 4° C. Flow cytometric analysis was performed on a BD LSR-Fortessa instrument (BD Biosciences, San Jose, Calif.). […] Median fluorescence intensity (MFI) was reported by analyzing 3000 alive cells per sample with the gating strategy: all cells/singlets/alive cells (PI negative) using BD FACSDiva software (BD Biosciences).

[26] = target: T2, Recombinant human Her2 extracellular …; experiment: SPR, pH 5.0 vs pH 7.4
Description: as §4

[27] = target: T2, Recombinant human Her2 extracellular …; experiment: SPR, acidic pH 5.0 vs physiological pH 7.4, relative to the parent bH1
Description: as §4

[28] = target: T1, intact Her2 expressed at the cell …; experiment: cell-based or functional assay
[29] = target: T1, intact Her2 expressed at the cell …; experiment: flow cytometry on SKOV3 cells, pH 5.2, against bH1-P5 and bH1-P5P7 Fabs
Description: as §5

fold pH-selectivity, pH 6.0 over pH 7.3 [1]: > 10 fold
fold pH-selectivity, pH 6.8 over pH 7.3 [2]: ~25 fold
Kd [3]: 9.5 nM
EC50 (read off the curve) [4]: ~10 nM
Kd [5]: 16 nM
EC50 (read off the curve) [6]: ~8 nM
Kd [7]: 29.7 nM
Kd [8]: 9.7 nM
EC50 (read off the curve) [9]: ~20 nM
Kd [10]: ~716 nM
Kd [11]: 8.4 nM
B1: bH1-P5P7-FSA (antibody, human IgG1, kappa, V domains shown)
VH: not shown
VL: DIQMTQSPSSLSASVGDRVTITCRASQDIPHSISGYVAWYQQKPGKAPKLLIYWGSYLYSGVPSRFSGSGSGTDFTLTISSLQPEDFATYYCQQHYTTPPTFGQGTKVEIKR
notes: also called bH1-P5P7 full-size antibody

Kd [12]: 1.5 nM
EC50 (read off the curve) [13]: ~4 nM
Kd [14]: 2.9 nM
EC50 (read off the curve) [15]: ~2 nM
EC50 (read off the curve) [4]: ~3 nM
EC50 (read off the curve) [6]: ~3 nM
Kd [16]: 2.6 nM
EC50 (read off the curve) [17]: ~2 nM
Kd [18]: 2.9 nM
EC50 (read off the curve) [9]: ~3 nM
Kd [19]: 2 nM
Kd [20]: 4.1 nM
B2: parental bH1-FSA (full-size human IgG1/k antibody) (antibody, V domains shown)
VH: not shown
VL: DIQMTQSPSSLSASVGDRVTITCRASQDIPRSISGYVAWYQQKPGKAPKLLIYWGSYLYSGVPSRFSGSGSGTDFTLTISSLQPEDFATYYCQQHYTTPPTFGQGTKVEIKR

Kd [21]: 21.3 nM
Kd [22]: 13 nM
Kd [23]: ~41 nM
Kd [24]: 3 nM
B3: parental bH1-Fab (Fab, V domains shown)
VH: not shown
VL: DIQMTQSPSSLSASVGDRVTITCRASQDIPRSISGYVAWYQQKPGKAPKLLIYWGSYLYSGVPSRFSGSGSGTDFTLTISSLQPEDFATYYCQQHYTTPPTFGQGTKVEIKR

Kd [22]: 17 nM
Kd [24]: 5.7 nM
B4: bH1-P7 (L-R30aH) Fab (Fab, V domains shown)
VH: not shown
VL: DIQMTQSPSSLSASVGDRVTITCRASQDIPHSISGYVAWYQQKPGKAPKLLIYWGSYLYSGVPSRFSGSGSGTDFTLTISSLQPEDFATYYCQQHYTTPPTFGQGTKVEIKR

Kd [24]: 10 nM
koff [24]: 0.0048 s⁻¹
kon [24]: 480000 M⁻¹ s⁻¹
B5: bH1-P6 (H-Y100aH) Fab (Fab, V domains shown)
VH: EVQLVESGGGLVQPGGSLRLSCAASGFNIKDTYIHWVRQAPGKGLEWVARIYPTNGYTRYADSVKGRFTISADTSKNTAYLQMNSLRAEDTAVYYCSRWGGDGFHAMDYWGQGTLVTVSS
VL: DIQMTQSPSSLSASVGDRVTITCRASQDIPRSISGYVAWYQQKPGKAPKLLIYWGSYLYSGVPSRFSGSGSGTDFTLTISSLQPEDFATYYCQQHYTTPPTFGQGTKVEIKR

Kd [22]: 9.9 nM
Kd [24]: 3.4 nM
B6: bH1-P8 (L-S30bH) Fab (Fab, V domains shown)
VH: not shown
VL: DIQMTQSPSSLSASVGDRVTITCRASQDIPRHISGYVAWYQQKPGKAPKLLIYWGSYLYSGVPSRFSGSGSGTDFTLTISSLQPEDFATYYCQQHYTTPPTFGQGTKVEIKR

Kd [25]: ~178 nM
Kd [22]: 90 nM
koff [22]: 0.0057 s⁻¹
kon [22]: 70000 M⁻¹ s⁻¹
Kd [24]: 530 nM
koff [24]: 0.021 s⁻¹
kon [24]: 40000 M⁻¹ s⁻¹
fold stronger binding at acidic pH than at physiological pH [26]: ~6 fold
ΔΔΔGbinding [27]: -1.93 kcal/mol
B7: bH1-P5P7 (H-R58H,L-R30aH) Fab (Fab, V domains shown)
VH: not shown
VL: DIQMTQSPSSLSASVGDRVTITCRASQDIPHSISGYVAWYQQKPGKAPKLLIYWGSYLYSGVPSRFSGSGSGTDFTLTISSLQPEDFATYYCQQHYTTPPTFGQGTKVEIKR
notes: also called bH1-P5P7-Fab

EC50 (read off the curve) [4]: ~10 nM
internalization of FITC conjugated antibody into BT474 cells, pH 6.4 [28]: 2 fold over negative control
Kd [5]: 15.1 nM
EC50 (read off the curve) [6]: ~10 nM
Kd [7]: 21.7 nM
EC50 (read off the curve) [9]: ~20 nM
Kd [10]: ~290 nM
Kd [11]: 12.3 nM
B8: bH1-P5P8-FSA (antibody, human IgG1, kappa, V domains shown)
VH: not shown
VL: DIQMTQSPSSLSASVGDRVTITCRASQDIPRHISGYVAWYQQKPGKAPKLLIYWGSYLYSGVPSRFSGSGSGTDFTLTISSLQPEDFATYYCQQHYTTPPTFGQGTKVEIKR
notes: also called bH1-P5P8 full-size antibody

Kd [25]: ~93 nM
fold stronger affinity than bH1-P5 and bH1-P5P7 [29]: ~2 fold
Kd [22]: 50 nM
koff [22]: 0.0037 s⁻¹
kon [22]: 90000 M⁻¹ s⁻¹
Kd [24]: 290 nM
koff [24]: 0.011 s⁻¹
kon [24]: 40000 M⁻¹ s⁻¹
fold stronger binding at acidic pH than at physiological pH [26]: ~6 fold
ΔΔΔGbinding [27]: -1.91 kcal/mol
B9: bH1-P5P8 (H-R58H,L-S30bH) Fab (Fab, V domains shown)
VH: not shown
VL: DIQMTQSPSSLSASVGDRVTITCRASQDIPRHISGYVAWYQQKPGKAPKLLIYWGSYLYSGVPSRFSGSGSGTDFTLTISSLQPEDFATYYCQQHYTTPPTFGQGTKVEIKR
notes: also called bH1-P5P8-Fab; bH1-P5P8 Fab
